T1: mouse matriptase-2 ECD protein his tag (mouse, UniProt Q9DBI0 80-811)
T1 construct: aa 80-811 of Q9DBI0 with C-terminal linker and His tag; also called mouse MTP-2 ECD; moMTP-2
T1 sequence: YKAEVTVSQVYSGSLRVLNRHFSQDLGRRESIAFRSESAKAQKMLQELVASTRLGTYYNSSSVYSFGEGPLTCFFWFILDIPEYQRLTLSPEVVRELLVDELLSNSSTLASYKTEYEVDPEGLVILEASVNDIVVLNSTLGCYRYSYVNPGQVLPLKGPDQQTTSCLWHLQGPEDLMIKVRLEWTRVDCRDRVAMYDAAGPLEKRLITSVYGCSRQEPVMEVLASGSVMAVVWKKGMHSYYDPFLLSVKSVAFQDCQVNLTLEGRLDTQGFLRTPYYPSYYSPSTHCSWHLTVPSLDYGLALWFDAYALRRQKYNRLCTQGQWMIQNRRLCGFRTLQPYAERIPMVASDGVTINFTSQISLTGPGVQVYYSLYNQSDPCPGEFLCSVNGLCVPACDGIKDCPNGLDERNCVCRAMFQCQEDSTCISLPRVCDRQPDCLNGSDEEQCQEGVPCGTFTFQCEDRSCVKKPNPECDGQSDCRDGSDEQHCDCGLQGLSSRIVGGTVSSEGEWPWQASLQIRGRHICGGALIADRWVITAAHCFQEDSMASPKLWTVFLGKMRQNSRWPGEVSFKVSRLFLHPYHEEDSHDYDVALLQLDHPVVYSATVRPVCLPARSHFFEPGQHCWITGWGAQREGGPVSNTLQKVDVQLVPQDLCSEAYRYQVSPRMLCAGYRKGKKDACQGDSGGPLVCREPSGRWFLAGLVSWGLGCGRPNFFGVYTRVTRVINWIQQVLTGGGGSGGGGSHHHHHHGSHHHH

T2: human matriptase-2 ECD protein his tag (human, UniProt Q8IU80 78-811)
T2 construct: also called human MTP-2 ECD; huMTP-2
T2 sequence: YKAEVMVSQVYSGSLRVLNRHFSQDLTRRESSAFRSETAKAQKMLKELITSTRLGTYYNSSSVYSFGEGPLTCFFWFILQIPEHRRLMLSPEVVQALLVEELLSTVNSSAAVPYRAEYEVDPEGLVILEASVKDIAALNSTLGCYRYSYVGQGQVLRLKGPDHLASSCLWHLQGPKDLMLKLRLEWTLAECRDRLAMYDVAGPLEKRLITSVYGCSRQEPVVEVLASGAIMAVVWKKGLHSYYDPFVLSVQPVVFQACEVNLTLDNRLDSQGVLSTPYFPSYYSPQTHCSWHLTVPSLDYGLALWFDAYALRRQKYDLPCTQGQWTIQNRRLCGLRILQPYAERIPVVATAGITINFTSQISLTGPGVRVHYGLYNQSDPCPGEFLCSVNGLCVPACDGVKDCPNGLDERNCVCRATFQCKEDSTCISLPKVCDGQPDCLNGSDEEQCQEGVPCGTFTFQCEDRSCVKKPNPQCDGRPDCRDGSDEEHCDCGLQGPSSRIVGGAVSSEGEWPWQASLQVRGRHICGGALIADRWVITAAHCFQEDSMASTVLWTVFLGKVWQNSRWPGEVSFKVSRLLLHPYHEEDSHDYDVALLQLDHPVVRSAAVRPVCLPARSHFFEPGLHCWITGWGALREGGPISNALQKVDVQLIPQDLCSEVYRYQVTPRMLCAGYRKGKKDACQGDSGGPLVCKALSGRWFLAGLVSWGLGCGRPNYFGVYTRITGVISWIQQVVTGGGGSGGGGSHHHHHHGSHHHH

B1: NORI-006 (antibody, human IgG4 S228P, kappa, V domains shown)
VH: EVQLVESGGGLIKPGRSLRLSCTGSGFTFGDFGLSWFRQAPGKGLEWISFIRSKPYGGTTDYAASVKGRFTISRDDSKNVAYLQMNSLKTEDTAVYYCARNEILTGYYIFDYWGQGTLVTVSS
VL: DIQMTQSPSSLSASLGDRVTITCQASQDINNYLNWYQVQPGKAPKLLIFDASILETGVPSRFSGSGSGTDFSFTISSLQPEDIATYYCQQYDNLPLTFGGGTKVDFKR
notes: human IgG4PE, kappa
B2: NORI-008 (antibody, human IgG4 S228P, kappa, V domains shown)
VH: QVQLQESGPGLVKPSETLSLTCSVSGGSVSSGRYYWTWIRQPPGKGLEWIGYISNSGNTNYNPSLKSRVTISLDTSKKQFSLSLSAVTAADTAVYYCARGFIYDYWFDPWGQGSLVTVSS
VL: DSQMTQSPSSLSASVGDRVTITCQASQDIDNYLNWYQQRPGKAPKLLIYDASKLETGVPSRFSGSGSGTDFTFTISSLQPEDFATYYCQQYGNLPITFGQGTRLDIKR
notes: human IgG4PE, kappa, in the in vitro assays; a mouse IgG1 format was used in one in vivo study only; also called NORI-008 hulgG4PE; NORI-008 IgG
B3: NORI-013 (antibody, human IgG4 S228P, lambda, V domains shown)
VH: EVQLVESGGGLIQAGRSLRLSCAASGFTFDEHVIYWVRQIPGKGLEWISSISWKSDIIAYADSVKGRFTISRDNAKNALYLQMNSLRAEDTALYYCAREKDGDFYYYYFAMDVWGQGTTVTVSS
VL: QSALTQPPSASGSPGQSVTLSCTGTSSDVGYYNYVSWYLQHPGKAPKLMIYEVSKRPSGVPDRFSGSKSANTASLTVSGLQAEDEADYYCSSYAGSNKVVFGGGTKVTVLG
notes: human IgG4PE, lambda
B4: NORI-014 (antibody, human IgG4 S228P, lambda, V domains shown)
VH: EVQLVESGGGLIQAGRSLRLSCAASGFTFDEHVMYWVRQIPGKGLEWISSITWKSDIIAYADSVKGRFTISRDNAKNALYLQMNSLRAEDTALYYCAREKDGDFYYYYFAMDVWGQGTTVTVSS
VL: QSALTQPPSASGSPGQSVTLSCTGTSSDVGYYNYVSWYLQHPGKAPKLMIYEVSKRPSGVPDRFSGSKSANTASLTVSGLQAEDEADYYCSSYAGSNKVVFGGGTKVTVLG
notes: human IgG4PE, lambda
B5: NORI-011 (antibody, human IgG4 S228P, lambda)
heavy: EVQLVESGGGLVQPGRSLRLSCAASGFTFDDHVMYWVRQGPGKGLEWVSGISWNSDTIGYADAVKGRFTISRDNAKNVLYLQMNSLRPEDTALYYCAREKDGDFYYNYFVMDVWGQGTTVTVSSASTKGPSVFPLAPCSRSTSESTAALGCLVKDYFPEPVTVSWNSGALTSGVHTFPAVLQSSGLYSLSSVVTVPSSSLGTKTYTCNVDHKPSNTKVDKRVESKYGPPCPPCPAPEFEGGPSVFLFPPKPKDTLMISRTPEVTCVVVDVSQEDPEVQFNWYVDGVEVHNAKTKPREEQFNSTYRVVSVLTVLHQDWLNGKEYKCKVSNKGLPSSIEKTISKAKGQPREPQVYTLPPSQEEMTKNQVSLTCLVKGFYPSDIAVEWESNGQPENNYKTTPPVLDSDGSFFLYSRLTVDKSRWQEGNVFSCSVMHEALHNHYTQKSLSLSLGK
light: QSALTQPPSASGSPGQSVTISCTGTSSDVGFYNFVSWYQQHPDKAPKVMIYEVSKRPSGVPDRFSGSKSGNTASLTVSGLQAEDEADYYCSSYAGSNKVVFGGGTKLTVLGQPKAAPSVTLFPPSSEELQANKATLVCLISDFYPGAVTVAWKADSSPVKAGVETTTPSKQSNNKYAASSYLSLTPEQWKSHRSYSCQVTHEGSTVEKTVAPTECS
notes: human IgG4PE, lambda; NORI-010 with a P124S mutation in the VH domain
B6: NORI-003 (antibody, human IgG4 S228P, kappa, V domains shown)
VH: EVQLVESGGGLVKPGRSLRLSCTGSGFTFGDFGMSWFRQAPGKGLEWVGFIRSKPYGGTTDYAPSVRGRFSISRDDSKGIVYLQMNSLRTEDTAVYYCSRNEILTGYYIFDYWGQGTLVTVSS
VL: DIQMTQSPSSLSASLGDRVTITCQASHDITNYLIWYQQKPGKAPRLLIFDASILETGVPSRFSGSGSGTDFTFTISSLQPEDFATYYCQQYYNLPLTFGGGTKVDIKR
notes: human IgG4PE, kappa; NORI-002 with the free cysteine of the VH domain mutated (printed as 'C49C')

Legend:
[1] = molecular target: T1, mouse matriptase-2 ECD protein his tag; assay: SPR, his-tagged MTP-2 ECD protein (Table W)
Procedure: (§1) Off-rate screening was performed by surface plasmon resonance (SPR), using a Biacore 8K system (GE Healthcare). Anti-human Fc mix (˜1000 RU) were immobilised in both active and reference channels in HBS-P+ buffer (GE BR100671) pH 7.4. Anti-MTP-2 hulgG4PE antibodies were then captured for 60 sec at 10 μl/min at 1 μg/ml concentration (approximatively 35 and 50 RU were captured) only on the active channel. MTP-2 ECD protein analytes were then injected (at 100, 25, 6.25, 1.56 and 0 nM concentrations) for 120 sec (association time) at 30 μl/min and dissociation monitored for 600 sec. Multiple cycle kinetics mode was used with all 8 channels being used. Reference and background were subtracted from the sensorgrams for each antibody and data was fitted using a 1:1 interaction model in the Biacore evaluation software. Rmax, ka, kd globally fitted, RI=0.
NORI-011, NORI-008, NORI-003 and NORI-006 were all found to have cross-reactive binding to human, mouse, cyno and rat MTP-2 ECD proteins. […] The true KD value for NORI-008 could not be measured accurately for human or mouse MTP-2 due to a very slow off-rate.

[2] = molecular target: T2, human matriptase-2 ECD protein his tag; assay: SPR (Biacore 8K), huIgG4PE captured on anti-human Fc, MTP-2 ECD as analyte, 1:1 fit
Procedure: as §1

[3] = molecular target: T1, mouse matriptase-2 ECD protein his tag; assay: as above
Procedure: as §1

Row | Binder | Kd [1] | Binding Late top conc [2] | Kd [2] | Stoichiometry [2] | koff [2] | kon [2] | Binding Late top conc [3] | Kd [3] | Stoichiometry [3] | koff [3] | kon [3]
1 | B1 | 27 nM |  |  |  |  |  |  |  |  |  | 
2 | B2 |  | 35.8 | 0.0129 nM | 0.72 | 1.47e-05 s⁻¹ | 1.14e+06 M⁻¹ s⁻¹ | 39.2 | 0.129 nM | 0.86 | 3.05e-05 s⁻¹ | 237000 M⁻¹ s⁻¹
3 | B3 |  | 14.6 | 1.79 nM | 1.05 | 5.78e-05 s⁻¹ | 32200 M⁻¹ s⁻¹ | 7.5 |  | 1.47 |  | 10500 M⁻¹ s⁻¹
4 | B4 |  | 10.7 | 1.71 nM | 0.9 | 4.6e-05 s⁻¹ | 26900 M⁻¹ s⁻¹ | 5.4 |  | 0.93 |  | 12100 M⁻¹ s⁻¹
5 | B5 | 9 nM |  |  |  |  |  |  |  |  |  | 
6 | B6 | 28.9 nM |  |  |  |  |  |  |  |  |  | 

Source: patent US20230025129A1 (KYMAB, published 2023)
